# Test results from IntAct's records for PubMed 36126419.
# B1: 3-mercaptopyruvate sulfurtransferase (Homo sapiens), P25325 (parent)
# chain: MASPQLCRALVSAQWVAEALRAPRAGQPLQLLDASWYLPKLGRDARREFEERHIPGAAFFDIDQCSDRTSPYDHMLPGAEHFAEYAGRLGVGAATHVVIYDASDQGLYSAPRVWWMFRAFGHHAVSLLDGGLRHWLRQNLPLSSGKSQPAPAEFRAQLDPAFIKTYEDIKENLESRRFQVVDSRATGRFRGTEPEPRDGIEPGHIPGTVNIPFTDFLSQEGLEKSPEEIRHLFQEKKVDLSKPLVATCGSGVTACHVALGAYLCGKPDVPIYDGSWVEWYMRARPEDVISEGRGKTH
# Variants of: B1
# Conditions: with akt1_human AKT1, P31749
# Chain of akt1_human AKT1, P31749 (P31749 whole entry): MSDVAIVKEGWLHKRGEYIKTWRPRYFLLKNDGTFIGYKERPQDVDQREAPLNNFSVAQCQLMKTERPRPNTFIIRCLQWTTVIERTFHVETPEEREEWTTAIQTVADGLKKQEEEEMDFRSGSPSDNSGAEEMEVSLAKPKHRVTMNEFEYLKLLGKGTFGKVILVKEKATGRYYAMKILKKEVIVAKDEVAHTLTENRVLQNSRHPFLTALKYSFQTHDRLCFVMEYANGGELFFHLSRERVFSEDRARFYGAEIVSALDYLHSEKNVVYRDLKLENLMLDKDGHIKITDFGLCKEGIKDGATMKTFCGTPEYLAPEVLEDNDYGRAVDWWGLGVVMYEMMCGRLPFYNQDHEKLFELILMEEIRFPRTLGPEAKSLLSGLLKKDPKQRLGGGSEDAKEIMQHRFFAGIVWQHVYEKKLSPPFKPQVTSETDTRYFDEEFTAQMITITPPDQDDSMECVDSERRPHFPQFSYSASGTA
row,Variant,effect of a mutation on the interaction
1,MASPQLCRALVSAQWVAEALRAPRAGQPLQLLDASWYLPKLGRDARREFEERHIPGAAFFDIDQCSDRTSPYDHMLPGAEHFAEYAGRLGVGAATHVVIYDASDQGLYSAPRVWWMFRAFGHHAVSLLDGGLRHWLRQNLPLSSGKSQPAPAEFRAQLDPAFIKTYEDIKENLESRRFQVVDSRATGRFRGTEPEPRDGIEPGHIPGTVNIPFTDFLSQEGLEKSPEEIRHLFQEKKVDLSKPLVATAGSGVTACHVALGAYLCGKPDVPIYDGSWVEWYMRARPEDVISEGRGKTH [C248A],disrupting interaction strength
